In general, Kd refers to a measure of binding affinity in units of concentration.

Bridge positions count the residues as written; N and C are the ends. * marks the point of attachment. Biotin = O=C1N[C@H]2[C@H](CS[C@H]2CCCCC(=O)*)N1

Test [1] addresses T1, type I equine fibrillar collagen (Collagen Horm, Nycomed) (equine).
T1 construct: Bought fibrillar preparation; also called type I collagen; fibrillar type I collagen
The test is described as follows: SPR; biotin-collagelin injected on collagen amine-coupled to a CM5 sensorchip. The method, then:
FIG. 2: Interaction of the collagelin with collagen: A Collagen was injected on biotin-collagelin immobilized on a streptavidin coated sensorchip. ˜10 RU collagen were bound onto the collagelin coated surface (dark). The fit is also indicated (grey). Non-specific background signal from a control flow cell coated with an irrelevant peptide was deduced. B Binding of collagelin to immobilized collagen. Increasing quantities of biotin-collagelin (250, 500 μg.mL−1) were injected on a collagen immobilized on a CM5 sensorchip. Sensorgrams and interaction fits obtained with the peptide are shown in black and grey respectively. Non-specific background measured using an irrelevant peptide was deduced.
In other experiments, fibrillar collagen was manually immobilized on a CM5-sensorchip according to the manufacturer's instructions (Biacore, Uppsala, Sweden). The biotinylated peptide (125; 250, 500 and 1000 μg/mL) was injected on immobilized collagen at 25° C. with a flow rate of 20 μL.min−1. In competition experiments, the peptide was pre-incubated with recombinant soluble human GPVI-Fc or the 9O12.2 IgGs before injection onto the surface. The surface plasmon resonance intensity was monitored and data analyzed using BioEval2.0 (Biacore).
Using the streptavidin-coated sensorship onto which biotin-collagelin was immobilized we observed binding of type I collagen to the surface (FIG. 2A). […]

The target in test [2] is T2, bovine fibrinogen (Sigma) (bovine, UniProt P02672 20-615; P02676 1-468; P12799 25-444, limits assumed).
T2 construct: Bought protein
T2 sequence (looked up) 1: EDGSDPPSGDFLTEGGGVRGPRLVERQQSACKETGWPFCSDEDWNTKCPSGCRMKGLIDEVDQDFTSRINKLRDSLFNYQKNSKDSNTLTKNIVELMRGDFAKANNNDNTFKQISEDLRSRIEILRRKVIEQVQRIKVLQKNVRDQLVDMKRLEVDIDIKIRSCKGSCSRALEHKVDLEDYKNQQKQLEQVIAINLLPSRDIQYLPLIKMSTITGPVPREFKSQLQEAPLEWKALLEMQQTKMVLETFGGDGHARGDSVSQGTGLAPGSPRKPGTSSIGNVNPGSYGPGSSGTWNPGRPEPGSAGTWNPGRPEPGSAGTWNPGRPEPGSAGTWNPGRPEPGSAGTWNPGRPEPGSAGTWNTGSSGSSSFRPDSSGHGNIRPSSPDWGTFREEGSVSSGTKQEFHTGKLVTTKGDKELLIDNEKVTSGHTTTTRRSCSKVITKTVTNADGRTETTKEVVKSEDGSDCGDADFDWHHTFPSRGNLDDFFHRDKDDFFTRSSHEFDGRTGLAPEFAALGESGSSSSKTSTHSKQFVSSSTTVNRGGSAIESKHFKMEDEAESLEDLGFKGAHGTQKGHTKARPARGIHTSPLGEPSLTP
T2 sequence (looked up) 2: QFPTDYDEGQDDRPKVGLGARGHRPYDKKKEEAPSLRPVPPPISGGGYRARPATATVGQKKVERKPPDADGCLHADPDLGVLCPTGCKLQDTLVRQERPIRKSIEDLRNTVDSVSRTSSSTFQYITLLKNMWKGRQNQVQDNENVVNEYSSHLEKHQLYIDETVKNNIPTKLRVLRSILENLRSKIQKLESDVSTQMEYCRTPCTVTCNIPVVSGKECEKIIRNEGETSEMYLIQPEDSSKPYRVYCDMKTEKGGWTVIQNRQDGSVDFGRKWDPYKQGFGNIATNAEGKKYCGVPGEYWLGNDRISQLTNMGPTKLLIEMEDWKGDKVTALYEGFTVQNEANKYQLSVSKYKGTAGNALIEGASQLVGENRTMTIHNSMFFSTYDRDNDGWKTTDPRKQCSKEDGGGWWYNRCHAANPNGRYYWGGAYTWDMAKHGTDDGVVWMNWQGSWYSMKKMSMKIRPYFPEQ
T2 sequence (looked up) 3: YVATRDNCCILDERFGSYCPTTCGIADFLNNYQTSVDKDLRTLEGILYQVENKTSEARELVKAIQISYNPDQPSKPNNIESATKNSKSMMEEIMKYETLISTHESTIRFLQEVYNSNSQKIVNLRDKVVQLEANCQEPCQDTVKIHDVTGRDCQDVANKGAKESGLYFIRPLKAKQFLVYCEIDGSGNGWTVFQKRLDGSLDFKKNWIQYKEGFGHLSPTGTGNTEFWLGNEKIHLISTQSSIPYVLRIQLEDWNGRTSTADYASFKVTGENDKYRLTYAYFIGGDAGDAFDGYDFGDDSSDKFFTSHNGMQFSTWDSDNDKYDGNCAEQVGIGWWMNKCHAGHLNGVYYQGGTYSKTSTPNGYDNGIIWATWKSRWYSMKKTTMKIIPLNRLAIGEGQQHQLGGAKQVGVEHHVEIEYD
The test is described as follows: Solid phase assay: biotin-collagelin on coated fibrinogen, detected with peroxidase-coupled extravidin [panel B]. As for the experimental part:
(§1) FIG. 3: Peptide Interaction with collagen and with different macromolecules: A Binding of collagelin to immobilized collagen in microtitration plates. biotin-collagelin or control peptide were incubated with immobilized fibrillar type I collagen and bound peptide was detected using peroxydase-coupled extravidine. In competition experiments collagelin was mixed with recombinant soluble GPVI (50 and 20 μg.mL−1), 9O12 IgGs (50 and 20 μg.mL−1) or 3J24.2 IgGs (50 μg.mL−1) prior to addition to collagen-coated wells. B: Binding of biotin-collagelin or control peptide (50 μg.mL−1) to immobilized fibrinogen, fibronectin, vitronectin and laminin. Coating of microtitration wells with the different proteins was performed as with collagen. Bound peptides were detected using peroxidase coupled extravidine.
(§2) Proteins [type I equine fibrillar collagen (Horm), bovine fibrinogen (Sigma), human fibronectin (Sigma), rat vitronectin (Sigma), murine laminin (Gibco), and bovine serum albumin (BSA Sigma)] were coated (1 μg/well) on microtitration plates (Immulon 2 Dynex vWR) for 24 hours at 4° C. After saturation of free sites with BSA, biotinylated FLIGPVI peptide (50 μg/ml) was added to the wells for 2 hours. The peptide bound to the wells was then detected using extravidin-HRP and orthophenyldiamine as substrate.

For test [3], the target named is T3, human fibronectin (Sigma) (human, UniProt P02751-8 32-2296, limits assumed).
T3 construct: Bought protein
T3 sequence (P02751 other isoform, or with tags, fused parts or gaps limits assumed): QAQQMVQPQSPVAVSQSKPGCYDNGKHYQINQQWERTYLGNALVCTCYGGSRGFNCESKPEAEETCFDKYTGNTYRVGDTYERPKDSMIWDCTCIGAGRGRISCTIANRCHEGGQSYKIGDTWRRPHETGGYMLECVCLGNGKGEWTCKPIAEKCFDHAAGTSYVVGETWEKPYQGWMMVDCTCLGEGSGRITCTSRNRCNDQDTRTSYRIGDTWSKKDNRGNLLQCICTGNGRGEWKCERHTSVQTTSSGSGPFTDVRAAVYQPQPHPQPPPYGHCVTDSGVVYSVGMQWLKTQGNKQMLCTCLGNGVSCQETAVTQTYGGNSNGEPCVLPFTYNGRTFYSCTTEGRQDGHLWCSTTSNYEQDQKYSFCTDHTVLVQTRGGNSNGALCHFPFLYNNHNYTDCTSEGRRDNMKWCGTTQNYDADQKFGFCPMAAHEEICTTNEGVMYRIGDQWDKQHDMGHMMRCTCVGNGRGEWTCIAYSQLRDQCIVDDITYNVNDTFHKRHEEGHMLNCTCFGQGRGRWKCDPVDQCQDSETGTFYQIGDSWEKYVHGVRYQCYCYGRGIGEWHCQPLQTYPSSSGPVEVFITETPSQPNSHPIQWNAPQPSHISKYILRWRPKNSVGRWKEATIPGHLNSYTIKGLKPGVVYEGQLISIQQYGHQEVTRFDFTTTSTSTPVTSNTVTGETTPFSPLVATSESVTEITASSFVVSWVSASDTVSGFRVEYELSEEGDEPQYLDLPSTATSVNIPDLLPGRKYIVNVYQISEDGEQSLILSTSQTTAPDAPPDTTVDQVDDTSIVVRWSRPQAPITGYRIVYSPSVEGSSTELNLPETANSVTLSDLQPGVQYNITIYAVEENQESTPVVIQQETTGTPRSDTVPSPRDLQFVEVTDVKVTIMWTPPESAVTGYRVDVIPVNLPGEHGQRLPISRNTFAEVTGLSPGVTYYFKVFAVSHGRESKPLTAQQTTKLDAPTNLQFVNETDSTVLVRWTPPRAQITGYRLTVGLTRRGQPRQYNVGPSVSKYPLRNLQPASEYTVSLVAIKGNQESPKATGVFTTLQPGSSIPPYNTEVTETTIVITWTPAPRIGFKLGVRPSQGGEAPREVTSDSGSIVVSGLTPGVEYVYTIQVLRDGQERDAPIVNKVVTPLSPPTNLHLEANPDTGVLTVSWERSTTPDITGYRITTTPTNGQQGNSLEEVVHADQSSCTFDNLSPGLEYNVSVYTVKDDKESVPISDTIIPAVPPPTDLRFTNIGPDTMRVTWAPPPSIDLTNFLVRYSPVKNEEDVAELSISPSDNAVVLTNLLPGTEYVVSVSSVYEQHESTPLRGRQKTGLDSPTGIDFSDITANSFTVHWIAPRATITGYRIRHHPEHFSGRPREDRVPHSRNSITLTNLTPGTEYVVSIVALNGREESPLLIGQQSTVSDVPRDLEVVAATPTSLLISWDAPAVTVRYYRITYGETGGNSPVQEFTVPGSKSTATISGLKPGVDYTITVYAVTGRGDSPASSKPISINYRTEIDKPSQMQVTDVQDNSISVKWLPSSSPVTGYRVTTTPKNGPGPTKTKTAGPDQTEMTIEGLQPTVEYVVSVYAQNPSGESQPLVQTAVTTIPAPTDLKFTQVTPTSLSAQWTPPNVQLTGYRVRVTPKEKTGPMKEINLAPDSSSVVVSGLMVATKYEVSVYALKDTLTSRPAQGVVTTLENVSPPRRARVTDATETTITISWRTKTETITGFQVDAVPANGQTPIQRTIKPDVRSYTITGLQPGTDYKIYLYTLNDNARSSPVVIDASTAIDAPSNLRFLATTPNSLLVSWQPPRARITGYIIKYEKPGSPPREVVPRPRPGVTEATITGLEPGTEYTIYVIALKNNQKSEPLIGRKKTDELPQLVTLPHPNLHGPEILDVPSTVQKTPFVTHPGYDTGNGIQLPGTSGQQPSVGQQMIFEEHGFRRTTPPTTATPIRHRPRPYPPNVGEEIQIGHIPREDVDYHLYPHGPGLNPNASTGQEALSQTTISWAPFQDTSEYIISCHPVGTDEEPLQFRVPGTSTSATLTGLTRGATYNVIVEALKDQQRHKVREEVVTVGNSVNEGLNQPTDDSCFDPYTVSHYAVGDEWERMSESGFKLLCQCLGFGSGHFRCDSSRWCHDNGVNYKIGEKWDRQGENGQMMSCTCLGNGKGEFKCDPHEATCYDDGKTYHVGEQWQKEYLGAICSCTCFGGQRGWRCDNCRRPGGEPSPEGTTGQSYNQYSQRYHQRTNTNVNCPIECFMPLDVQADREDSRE
The test is described as follows: Solid phase assay: biotin-collagelin on coated fibronectin, detected with peroxidase-coupled extravidin [panel B]. As for the experimental part:
as §1, §2

Test [4] has as its target T4, soluble recombinant GPVI-Fc fusion protein (human, UniProt Q9HCN6 21-269, limits assumed).
T4 construct: also called recombinant soluble GPVI; recombinant soluble human GPVI-Fc; not shown: Fc part
T4 sequence (looked up): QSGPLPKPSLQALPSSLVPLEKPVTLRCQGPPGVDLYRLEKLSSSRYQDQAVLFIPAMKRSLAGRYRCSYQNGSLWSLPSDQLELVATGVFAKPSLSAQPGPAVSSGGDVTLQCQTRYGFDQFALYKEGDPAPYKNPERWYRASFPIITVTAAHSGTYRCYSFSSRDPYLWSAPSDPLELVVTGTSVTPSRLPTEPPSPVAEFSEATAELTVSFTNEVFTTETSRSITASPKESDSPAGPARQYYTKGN
The test is described as follows: SPR; biotin-collagelin on a streptavidin sensorchip. A general note: In SPR one partner is held on a chip, and binding of the other changes the refractive index at the surface.

B1: biotin-collagelin (peptide)
peptide: Biotin-SGSGCGPRVMHGLHLGDDEGPC-NH2
modifications: disulfide 5-22
SMILES: CSCC[C@@H]1NC(=O)[C@H](C(C)C)NC(=O)[C@H](CCCNC(=N)N)NC(=O)[C@@H]2CCCN2C(=O)CNC(=O)[C@@H](NC(=O)CNC(=O)[C@H](CO)NC(=O)CNC(=O)[C@H](CO)NC(=O)CCCC[C@@H]2SC[C@@H]3NC(=O)N[C@@H]32)CSSC[C@@H](C(N)=O)NC(=O)[C@@H]2CCCN2C(=O)CNC(=O)[C@H](CCC(=O)O)NC(=O)[C@H](CC(=O)O)NC(=O)[C@H](CC(=O)O)NC(=O)CNC(=O)[C@H](CC(C)C)NC(=O)[C@H](Cc2c[nH]cn2)NC(=O)[C@H](CC(C)C)NC(=O)CNC(=O)[C@H](Cc2c[nH]cn2)NC1=O
notes: also called biotinylated collagelin
In the case of B1, the Kd in test [1] worked out at 100 nM. In addition, the figures for the binding result in test [2], in test [3] and in test [4] were “no binding (tested: 50 µg/mL (legend))”, “no binding (tested: 50 µg/mL (legend))” and “no binding (tested: 25 µg/ml)”, respectively.

These data come from patent US20100303724A1 (UNIVERSITE PARIS DIDEROT PARIS 7, published 2010).
